PMC4547098 (eLife, 2015)

B1: Pikp-HMA domain made in Sf9 cells for crystallisation (domain or fragment, rice (Oryza sativa), UniProt E9KPB5 186-258, looked up)
chain: GLKQKIVIKVAMEGNNCRSKAMALVASTGGVDSVALVGDLRDKIEVVGYGIDPIKLISALRKKVGDAELLQVS
notes: also called Pikp1-HMA; not shown: 6xHis+SUMO, N-terminal, cleaved
B2: Pikp-HMA domain (HMA integrated domain of the rice NLR Pikp-1) (domain or fragment)
chain: B1 chain
notes: also called Pikp1-HMA; Pikp-1 HMA; not shown: 6xHis+SUMO, N-terminal, cleaved

Columns and labels:
[1] = target: the molecule itself; assay: crystal structure; Pikp-HMA alone; 0.1 M MIB buffer pH 5.0, 25% PEG 1500; dimer in the crystal
[2] = target: AVR-PikD with non-cleavable C-terminal 6xHis tag (pOPINE) (Magnaporthe oryzae, UniProt C4B8B8 22-113); assay: SPR; Biacore T200, 25°C, multi-cycle kinetics; […]; 50 mM HEPES pH 7.5, 150 mM NaCl, 0.1% Tween 20; […]; conditions: both partners purified

Row | Binder | stoichiometry N [1] | Kd [2] [nM]
1 | B1 | 2 | 
2 | B2 |  | 31 ± 2
